Target: CarD WT;MTB RNAP (WT) (Mycobacterium …, UniProt P9WJG3;P9WGZ1;P9WGY9;P9WGY7;P9WGY5 1-162;1-347;1-1178;1-1316;1-110, |)
Assay: competition (fluorescence polarization)
Conditions: protein: recombinant;recombinant; tags: ;; copies: 1;2;1;1;1; blunt

B1: rrnAP3 native 61 bp (dsDNA)
DNA 1: GATGACCGAACCTGGTCTTGACTCCATTGCCGGATTTGTATTAGACTGGCAGGGTTGCCCC
DNA 2: GGGGCAACCCTGCCAGTCTAATACAAATCCGGCAATGGAGTCAAGACCAGGTTCGGTCATC
  Ki: 8 ± 1 nM

From article PMC7718890
